According to article PMC4833862:

Target: CthACC (full-length Chaetomium thermophilum acetyl-CoA carboxylase, 1-2,297) (Chaetomium thermophilum)
Assay: SAXS; 30 mM MOPS pH 7, 200 mM ammonium sulfate, 5% glycerol, 10 mM dithiothreitol; 2.5, 5 and 10 mg/ml, extrapolated to zero concentration

“CthACC (full-length Chaetomium thermophilum acetyl-CoA carboxylase, 1-2,297) (enzyme)” gave a stoichiometry N of 2.
